# Assay results taken from patent publication US5354664.
# What was measured:
# human fibrinogen (human) = human fibrinogen (human) (UniProt P02671)
# [1] = biological target: bovine fibrinogen (bovine)
# bovine thrombin (bovine) [2] = biological target: bovine thrombin (bovine) (UniProt P00735)
# bovine thrombin (bovine) [3] = biological target: bovine thrombin (bovine) (UniProt P00735); remark: listed apart in the source
# bovine thrombin (bovine) [4] = biological target: bovine thrombin (bovine) (UniProt P00735); remark: listed apart in the source
# human urine derived thrombin-binding substance obtained using a recombinant DNA technique (r-UTM) (receptor), sequence (chain): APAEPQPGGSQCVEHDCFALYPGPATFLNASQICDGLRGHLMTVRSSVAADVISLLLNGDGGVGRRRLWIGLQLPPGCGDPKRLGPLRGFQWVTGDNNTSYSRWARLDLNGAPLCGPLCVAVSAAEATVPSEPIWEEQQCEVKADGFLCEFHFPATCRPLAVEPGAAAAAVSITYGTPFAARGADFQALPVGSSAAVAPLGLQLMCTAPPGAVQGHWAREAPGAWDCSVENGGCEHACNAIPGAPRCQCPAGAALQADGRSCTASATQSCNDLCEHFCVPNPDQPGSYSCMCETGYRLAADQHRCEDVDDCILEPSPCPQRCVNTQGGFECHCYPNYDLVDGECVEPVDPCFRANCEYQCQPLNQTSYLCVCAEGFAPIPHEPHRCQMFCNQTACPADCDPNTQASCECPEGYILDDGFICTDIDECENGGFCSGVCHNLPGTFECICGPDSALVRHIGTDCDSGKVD
substance,measurement,setting,value
bovine thrombin (from UniProt P00735) (enzyme),"clotting time, control, ATIII (-)",human fibrinogen (human),43.3 s
same,"Coagulation time (sec), control",[1],28.1 s
human antithrombin III (from UniProt P01008),"clotting time, control, ATIII (+)",bovine thrombin (bovine) [2],49.5 s
human urine derived thrombin-binding substance obtained using a recombinant DNA technique (r-UTM) (receptor),"clotting time, ATIII (+) (human antithrombin III 250 µg/ml)",bovine thrombin (bovine) [2],80.8 s
same,"clotting time, ATIII (-)",bovine thrombin (bovine) [2],61.8 s
same,IC50 (time required for the coagulation),bovine thrombin (bovine) [3],80 nM
same,Coagulation time,bovine thrombin (bovine) [4],29.6 s
